B1: POU domain, class 3, transcription factor 2, residues 262 to 338; numbered along this chain, P20265 (parent)
chain: EDTPTSDDLEQFAKQFKQRRIKLGFTQADVGLALGTLYGNVFSQTTICRFEALQLSFKNMCKLKPLLNKWLEEADSS

± gives the uncertainty stated by the source.

From the Human Domainome abundance scans (Beltran et al. 2025) come the findings set out here.

This data set covers variants of B1. As to the kind of experiment: abundance fitness (aPCA) (normalised: wild type 0, dead -1); higher = more abundant; growth selection in yeast, the domain comes from the species named. Particulars: Homo sapiens.
Take EDTPTSDDLEQFAKQFKQRRIKLGFTQADVGLTLGTLYGNVFSQTTICRFEALQLSFKNMCKLKPLLNKWLEEADSS: the abundance fitness is -0.113 ± 0.068. For EDTPTSDDLEQFAKQFKQRRIKLGFTQADVGLKLGTLYGNVFSQTTICRFEALQLSFKNMCKLKPLLNKWLEEADSS, the abundance fitness was -0.264 ± 0.061. For the variant EDTPTSDDLEQFAKQFKQRRIKLGFTQADVGLRLGTLYGNVFSQTTICRFEALQLSFKNMCKLKPLLNKWLEEADSS, the abundance fitness was -0.102 ± 0.031.

As to EDTPTSDDLEQFAKQFKQRRIKLGFTQADVGLMLGTLYGNVFSQTTICRFEALQLSFKNMCKLKPLLNKWLEEADSS, the abundance fitness was -0.077 ± 0.041.

Take EDTPTSDDLEQFAKQFKQRRIKLGFTQADVGLWLGTLYGNVFSQTTICRFEALQLSFKNMCKLKPLLNKWLEEADSS: the abundance fitness is -0.021 ± 0.036. Then EDTPTSDDLEQFAKQFKQRRIKLGFTQADVGLYLGTLYGNVFSQTTICRFEALQLSFKNMCKLKPLLNKWLEEADSS, with -0.314 ± 0.087; and EDTPTSDDLEQFAKQFKQRRIKLGFTQADVGLILGTLYGNVFSQTTICRFEALQLSFKNMCKLKPLLNKWLEEADSS, with -0.138 ± 0.075; and EDTPTSDDLEQFAKQFKQRRIKLGFTQADVGLNLGTLYGNVFSQTTICRFEALQLSFKNMCKLKPLLNKWLEEADSS, with -0.477 ± 0.14. Then EDTPTSDDLEQFAKQFKQRRIKLGFTQADVGLLLGTLYGNVFSQTTICRFEALQLSFKNMCKLKPLLNKWLEEADSS, with -0.304 ± 0.041. Then EDTPTSDDLEQFAKQFKQRRIKLGFTQADVGLSLGTLYGNVFSQTTICRFEALQLSFKNMCKLKPLLNKWLEEADSS, with -0.091 ± 0.039; and EDTPTSDDLEQFAKQFKQRRIKLGFTQADVGLHLGTLYGNVFSQTTICRFEALQLSFKNMCKLKPLLNKWLEEADSS, with -0.002 ± 0.075. With EDTPTSDDLEQFAKQFKQRRIKLGFTQADVGLFLGTLYGNVFSQTTICRFEALQLSFKNMCKLKPLLNKWLEEADSS, the abundance fitness is -0.329 ± 0.083.

As to EDTPTSDDLEQFAKQFKQRRIKLGFTQADVGLQLGTLYGNVFSQTTICRFEALQLSFKNMCKLKPLLNKWLEEADSS, the abundance fitness came to 0.015 ± 0.042. For the variant EDTPTSDDLEQFAKQFKQRRIKLGFTQADVGLALFTLYGNVFSQTTICRFEALQLSFKNMCKLKPLLNKWLEEADSS, the abundance fitness is -0.183 ± 0.054. Then EDTPTSDDLEQFAKQFKQRRIKLGFTQADVGLALCTLYGNVFSQTTICRFEALQLSFKNMCKLKPLLNKWLEEADSS, with -0.113 ± 0.041; and EDTPTSDDLEQFAKQFKQRRIKLGFTQADVGLALYTLYGNVFSQTTICRFEALQLSFKNMCKLKPLLNKWLEEADSS, with -0.155 ± 0.076. Then EDTPTSDDLEQFAKQFKQRRIKLGFTQADVGLALDTLYGNVFSQTTICRFEALQLSFKNMCKLKPLLNKWLEEADSS, with -0.415 ± 0.06; and EDTPTSDDLEQFAKQFKQRRIKLGFTQADVGLALITLYGNVFSQTTICRFEALQLSFKNMCKLKPLLNKWLEEADSS, with -0.367 ± 0.1; and EDTPTSDDLEQFAKQFKQRRIKLGFTQADVGLALNTLYGNVFSQTTICRFEALQLSFKNMCKLKPLLNKWLEEADSS, with 0.008 ± 0.065.

EDTPTSDDLEQFAKQFKQRRIKLGFTQADVGLALQTLYGNVFSQTTICRFEALQLSFKNMCKLKPLLNKWLEEADSS: the abundance fitness is 0.025 ± 0.046. Take EDTPTSDDLEQFAKQFKQRRIKLGFTQADVGLALWTLYGNVFSQTTICRFEALQLSFKNMCKLKPLLNKWLEEADSS: the abundance fitness was -0.239 ± 0.037. Consider EDTPTSDDLEQFAKQFKQRRIKLGFTQADVGLALPTLYGNVFSQTTICRFEALQLSFKNMCKLKPLLNKWLEEADSS, for which the abundance fitness is -0.612 ± 0.071. As for EDTPTSDDLEQFAKQFKQRRIKLGFTQADVGLALLTLYGNVFSQTTICRFEALQLSFKNMCKLKPLLNKWLEEADSS, the abundance fitness was -0.453 ± 0.039.

Take EDTPTSDDLEQFAKQFKQRRIKLGFTQADVGLALMTLYGNVFSQTTICRFEALQLSFKNMCKLKPLLNKWLEEADSS: the abundance fitness is -0.174 ± 0.042.

Turning to EDTPTSDDLEQFAKQFKQRRIKLGFTQADVGLALSTLYGNVFSQTTICRFEALQLSFKNMCKLKPLLNKWLEEADSS, the abundance fitness turned out to be 0.037 ± 0.033. Then EDTPTSDDLEQFAKQFKQRRIKLGFTQADVGLALHTLYGNVFSQTTICRFEALQLSFKNMCKLKPLLNKWLEEADSS, with -0.06 ± 0.065; and EDTPTSDDLEQFAKQFKQRRIKLGFTQADVGLALATLYGNVFSQTTICRFEALQLSFKNMCKLKPLLNKWLEEADSS, with -0.016 ± 0.033; and EDTPTSDDLEQFAKQFKQRRIKLGFTQADVGLALTTLYGNVFSQTTICRFEALQLSFKNMCKLKPLLNKWLEEADSS, with 0.052 ± 0.038. Then EDTPTSDDLEQFAKQFKQRRIKLGFTQADVGLALVTLYGNVFSQTTICRFEALQLSFKNMCKLKPLLNKWLEEADSS, with -0.345 ± 0.035; and EDTPTSDDLEQFAKQFKQRRIKLGFTQADVGLALETLYGNVFSQTTICRFEALQLSFKNMCKLKPLLNKWLEEADSS, with -0.076 ± 0.035; and EDTPTSDDLEQFAKQFKQRRIKLGFTQADVGLALRTLYGNVFSQTTICRFEALQLSFKNMCKLKPLLNKWLEEADSS, with 0.016 ± 0.028. With EDTPTSDDLEQFAKQFKQRRIKLGFTQADVGLALGTCYGNVFSQTTICRFEALQLSFKNMCKLKPLLNKWLEEADSS, the abundance fitness is -0.031 ± 0.053. Then EDTPTSDDLEQFAKQFKQRRIKLGFTQADVGLALGTDYGNVFSQTTICRFEALQLSFKNMCKLKPLLNKWLEEADSS, with -0.118 ± 0.046; and EDTPTSDDLEQFAKQFKQRRIKLGFTQADVGLALGTFYGNVFSQTTICRFEALQLSFKNMCKLKPLLNKWLEEADSS, with -0.053 ± 0.076. Then EDTPTSDDLEQFAKQFKQRRIKLGFTQADVGLALGTAYGNVFSQTTICRFEALQLSFKNMCKLKPLLNKWLEEADSS, with -0.023 ± 0.034; and EDTPTSDDLEQFAKQFKQRRIKLGFTQADVGLALGTEYGNVFSQTTICRFEALQLSFKNMCKLKPLLNKWLEEADSS, with -0.012 ± 0.035; and EDTPTSDDLEQFAKQFKQRRIKLGFTQADVGLALGTGYGNVFSQTTICRFEALQLSFKNMCKLKPLLNKWLEEADSS, with -0.328 ± 0.026. Then EDTPTSDDLEQFAKQFKQRRIKLGFTQADVGLALGILYGNVFSQTTICRFEALQLSFKNMCKLKPLLNKWLEEADSS, with -0.184 ± 0.093. Regarding EDTPTSDDLEQFAKQFKQRRIKLGFTQADVGLALGELYGNVFSQTTICRFEALQLSFKNMCKLKPLLNKWLEEADSS, the abundance fitness turned out to be 0.056 ± 0.033.

As for EDTPTSDDLEQFAKQFKQRRIKLGFTQADVGLALGYLYGNVFSQTTICRFEALQLSFKNMCKLKPLLNKWLEEADSS, the abundance fitness was 0.026 ± 0.071. Then EDTPTSDDLEQFAKQFKQRRIKLGFTQADVGLALGFLYGNVFSQTTICRFEALQLSFKNMCKLKPLLNKWLEEADSS, with -0.342 ± 0.11; and EDTPTSDDLEQFAKQFKQRRIKLGFTQADVGLALGPLYGNVFSQTTICRFEALQLSFKNMCKLKPLLNKWLEEADSS, with -0.137 ± 0.046; and EDTPTSDDLEQFAKQFKQRRIKLGFTQADVGLALGWLYGNVFSQTTICRFEALQLSFKNMCKLKPLLNKWLEEADSS, with -0.33 ± 0.046. Then EDTPTSDDLEQFAKQFKQRRIKLGFTQADVGLALGGLYGNVFSQTTICRFEALQLSFKNMCKLKPLLNKWLEEADSS, with -0.079 ± 0.027.

On to EDTPTSDDLEQFAKQFKQRRIKLGFTQADVGLALGNLYGNVFSQTTICRFEALQLSFKNMCKLKPLLNKWLEEADSS, for which the abundance fitness was 0.052 ± 0.066.

Regarding EDTPTSDDLEQFAKQFKQRRIKLGFTQADVGLALGRLYGNVFSQTTICRFEALQLSFKNMCKLKPLLNKWLEEADSS, the abundance fitness was 0.012 ± 0.027.

Regarding EDTPTSDDLEQFAKQFKQRRIKLGFTQADVGLALGMLYGNVFSQTTICRFEALQLSFKNMCKLKPLLNKWLEEADSS, the abundance fitness was -0.11 ± 0.042. Then EDTPTSDDLEQFAKQFKQRRIKLGFTQADVGLALGLLYGNVFSQTTICRFEALQLSFKNMCKLKPLLNKWLEEADSS, with -0.194 ± 0.037. In the case of EDTPTSDDLEQFAKQFKQRRIKLGFTQADVGLALGSLYGNVFSQTTICRFEALQLSFKNMCKLKPLLNKWLEEADSS, the abundance fitness turned out to be 0.042 ± 0.036.

For the variant EDTPTSDDLEQFAKQFKQRRIKLGFTQADVGLALGCLYGNVFSQTTICRFEALQLSFKNMCKLKPLLNKWLEEADSS, the abundance fitness is -0.156 ± 0.051. On to EDTPTSDDLEQFAKQFKQRRIKLGFTQADVGLALGHLYGNVFSQTTICRFEALQLSFKNMCKLKPLLNKWLEEADSS, for which the abundance fitness was 0.015 ± 0.059. For EDTPTSDDLEQFAKQFKQRRIKLGFTQADVGLALGALYGNVFSQTTICRFEALQLSFKNMCKLKPLLNKWLEEADSS, the abundance fitness was -0.021 ± 0.033. Then EDTPTSDDLEQFAKQFKQRRIKLGFTQADVGLALGQLYGNVFSQTTICRFEALQLSFKNMCKLKPLLNKWLEEADSS, with -0.038 ± 0.045; and EDTPTSDDLEQFAKQFKQRRIKLGFTQADVGLAEGTLYGNVFSQTTICRFEALQLSFKNMCKLKPLLNKWLEEADSS, with -1.01 ± 0.15.

With EDTPTSDDLEQFAKQFKQRRIKLGFTQADVGLAKGTLYGNVFSQTTICRFEALQLSFKNMCKLKPLLNKWLEEADSS, the abundance fitness was -0.441 ± 0.076.

With EDTPTSDDLEQFAKQFKQRRIKLGFTQADVGLANGTLYGNVFSQTTICRFEALQLSFKNMCKLKPLLNKWLEEADSS, the abundance fitness was -0.796 ± 0.15. Regarding EDTPTSDDLEQFAKQFKQRRIKLGFTQADVGLACGTLYGNVFSQTTICRFEALQLSFKNMCKLKPLLNKWLEEADSS, the abundance fitness was -0.224 ± 0.05. As to EDTPTSDDLEQFAKQFKQRRIKLGFTQADVGLADGTLYGNVFSQTTICRFEALQLSFKNMCKLKPLLNKWLEEADSS, the abundance fitness was -0.76 ± 0.12. Then EDTPTSDDLEQFAKQFKQRRIKLGFTQADVGLAWGTLYGNVFSQTTICRFEALQLSFKNMCKLKPLLNKWLEEADSS, with -0.973 ± 0.1. Then EDTPTSDDLEQFAKQFKQRRIKLGFTQADVGLAAGTLYGNVFSQTTICRFEALQLSFKNMCKLKPLLNKWLEEADSS, with -0.646 ± 0.068; and EDTPTSDDLEQFAKQFKQRRIKLGFTQADVGLASGTLYGNVFSQTTICRFEALQLSFKNMCKLKPLLNKWLEEADSS, with -0.955 ± 0.093; and EDTPTSDDLEQFAKQFKQRRIKLGFTQADVGLAGGTLYGNVFSQTTICRFEALQLSFKNMCKLKPLLNKWLEEADSS, with -0.854 ± 0.059. For EDTPTSDDLEQFAKQFKQRRIKLGFTQADVGLATGTLYGNVFSQTTICRFEALQLSFKNMCKLKPLLNKWLEEADSS, the abundance fitness is -0.742 ± 0.1. Then EDTPTSDDLEQFAKQFKQRRIKLGFTQADVGLAHGTLYGNVFSQTTICRFEALQLSFKNMCKLKPLLNKWLEEADSS, with -1.2 ± 0.45; and EDTPTSDDLEQFAKQFKQRRIKLGFTQADVGLAQGTLYGNVFSQTTICRFEALQLSFKNMCKLKPLLNKWLEEADSS, with -0.948 ± 0.15; and EDTPTSDDLEQFAKQFKQRRIKLGFTQADVGLAMGTLYGNVFSQTTICRFEALQLSFKNMCKLKPLLNKWLEEADSS, with -0.035 ± 0.04. For the variant EDTPTSDDLEQFAKQFKQRRIKLGFTQADVGLAYGTLYGNVFSQTTICRFEALQLSFKNMCKLKPLLNKWLEEADSS, the abundance fitness was -0.895 ± 0.17. Then EDTPTSDDLEQFAKQFKQRRIKLGFTQADVGLARGTLYGNVFSQTTICRFEALQLSFKNMCKLKPLLNKWLEEADSS, with -0.773 ± 0.054; and EDTPTSDDLEQFAKQFKQRRIKLGFTQADVGLAIGTLYGNVFSQTTICRFEALQLSFKNMCKLKPLLNKWLEEADSS, with -0.132 ± 0.057. Consider EDTPTSDDLEQFAKQFKQRRIKLGFTQADVGLAFGTLYGNVFSQTTICRFEALQLSFKNMCKLKPLLNKWLEEADSS, for which the abundance fitness was -0.732 ± 0.17. As to EDTPTSDDLEQFAKQFKQRRIKLGFTQADVGLAVGTLYGNVFSQTTICRFEALQLSFKNMCKLKPLLNKWLEEADSS, the abundance fitness was -0.329 ± 0.036.
